Experiments:
[1] = molecular target: T1, FoxO1 DBD 151-266 (human, UniProt Q12778 151-266); experiment: EMSA
[2] = molecular target: FoxO1 DBD 151-256 (human, UniProt Q12778 151-256); experiment: EMSA
[3] = molecular target: T1, FoxO1 DBD 151-266; experiment: crystal structure

T1 sequence (Q12778 151-266): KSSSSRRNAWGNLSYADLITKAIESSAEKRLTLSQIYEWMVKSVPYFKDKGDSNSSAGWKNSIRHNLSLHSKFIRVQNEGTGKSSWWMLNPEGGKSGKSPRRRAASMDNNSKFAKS
Chain of FoxO1 DBD 151-256 (Q12778 151-256): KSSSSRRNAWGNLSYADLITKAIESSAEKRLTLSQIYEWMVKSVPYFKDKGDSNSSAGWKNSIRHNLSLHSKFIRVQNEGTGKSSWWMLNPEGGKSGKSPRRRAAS

Binder	binding signal [1]	binding result [2]	binding result [3]
DBE2 (dsDNA) DNA 1: TCTTGTTTACATTTTG DNA 2: CAAAATGTAAACAAGA	5 fold affinity vs DBE1	–	–
IRE (dsDNA) DNA 1: TGGTTTGTTTTGCTTG DNA 2: CAAGCAAAACAAACCA	–	binds	binds
DBE1 (dsDNA) DNA 1: TGGTTTGTTTACCTTG DNA 2: CAAGGTAAACAAACCA	2 fold affinity vs IRE	–	–

Source: paper PMC2597217
